Laboratory results from US20230374151A1 (GlaxoSmithKline, published 2023).

How the values were obtained:
[1] = molecular target: T1, TnMUC1 (aberrantly glycosylated MUC1) on tumour cells (human, UniProt P15941 24-1255, truncated Tn / sialyl-Tn O-glycans on Ser/Thr (aberrant glycosylation)); test: flow cytometry on TnMUC1-positive Jurkat cells, His-tagged scFv pre-complexed with anti-His-PE, n=1 representative
T1 construct: whole, on cells; also called Tn/STnMUC-1; TnMUC1-positive MDA-MB-468 cells

[2] = molecular target: T1, TnMUC1 (aberrantly glycosylated MUC1) …; test: flow cytometry on MDA-MB-468 cells, scFv pre-complexed with anti-His-PE; mean
Protocol: (§1) Cells were detached and cells were re-suspended in appropriate cell culture media or transferred to Falcon tube. A sample of each cell suspension was then diluted 1:5 with DPBS (to give a final volume of 0.5 mL) and the number of viable cells per mL (based on trypan blue exclusion) were determined for each cell suspension using the Vi-CELL XR Cell Viability Analyser (Default cell type setting used). Cell suspensions were then diluted in appropriate cell culture media and seeded into fresh cell culture flasks at a density of 6.25×10⁴ viable cells per cm². Cells were incubated in a humidified incubator at 37° C. with 5% CO₂ for 48 hours (or until required). On the day of assay, cells were detached from flasks, resuspended in appropriate cell culture media (if appropriate) and the number of viable cells per mL counted as described previously. Cell suspensions were then centrifuged at 500×g for 5 minutes before resuspending cell pellets in FACS Buffer at a density of 4×10⁶ viable cells per mL.
(§2) scFv proteins were diluted to 62.5 nM in DPBS and dispensed into row A of a 96-well V-bottom plate before performing a 1:4 serial dilution in FACS Buffer down the plate to give 25 μL (final volume) per well (FACS Buffer in row H only). […]

[3] = molecular target: T1, TnMUC1 (aberrantly glycosylated MUC1) …; test: flow cytometry on MDA-MB-468 cells, scFv pre-complexed with anti-His-PE; experiment 75-14
Protocol: as §1, §2

[4] = molecular target: T1, TnMUC1 (aberrantly glycosylated MUC1) …; test: flow cytometry on MDA-MB-468 cells, scFv pre-complexed with anti-His-PE; experiment 75-13
Protocol: as §1, §2

T1 sequence (P15941 24-1255): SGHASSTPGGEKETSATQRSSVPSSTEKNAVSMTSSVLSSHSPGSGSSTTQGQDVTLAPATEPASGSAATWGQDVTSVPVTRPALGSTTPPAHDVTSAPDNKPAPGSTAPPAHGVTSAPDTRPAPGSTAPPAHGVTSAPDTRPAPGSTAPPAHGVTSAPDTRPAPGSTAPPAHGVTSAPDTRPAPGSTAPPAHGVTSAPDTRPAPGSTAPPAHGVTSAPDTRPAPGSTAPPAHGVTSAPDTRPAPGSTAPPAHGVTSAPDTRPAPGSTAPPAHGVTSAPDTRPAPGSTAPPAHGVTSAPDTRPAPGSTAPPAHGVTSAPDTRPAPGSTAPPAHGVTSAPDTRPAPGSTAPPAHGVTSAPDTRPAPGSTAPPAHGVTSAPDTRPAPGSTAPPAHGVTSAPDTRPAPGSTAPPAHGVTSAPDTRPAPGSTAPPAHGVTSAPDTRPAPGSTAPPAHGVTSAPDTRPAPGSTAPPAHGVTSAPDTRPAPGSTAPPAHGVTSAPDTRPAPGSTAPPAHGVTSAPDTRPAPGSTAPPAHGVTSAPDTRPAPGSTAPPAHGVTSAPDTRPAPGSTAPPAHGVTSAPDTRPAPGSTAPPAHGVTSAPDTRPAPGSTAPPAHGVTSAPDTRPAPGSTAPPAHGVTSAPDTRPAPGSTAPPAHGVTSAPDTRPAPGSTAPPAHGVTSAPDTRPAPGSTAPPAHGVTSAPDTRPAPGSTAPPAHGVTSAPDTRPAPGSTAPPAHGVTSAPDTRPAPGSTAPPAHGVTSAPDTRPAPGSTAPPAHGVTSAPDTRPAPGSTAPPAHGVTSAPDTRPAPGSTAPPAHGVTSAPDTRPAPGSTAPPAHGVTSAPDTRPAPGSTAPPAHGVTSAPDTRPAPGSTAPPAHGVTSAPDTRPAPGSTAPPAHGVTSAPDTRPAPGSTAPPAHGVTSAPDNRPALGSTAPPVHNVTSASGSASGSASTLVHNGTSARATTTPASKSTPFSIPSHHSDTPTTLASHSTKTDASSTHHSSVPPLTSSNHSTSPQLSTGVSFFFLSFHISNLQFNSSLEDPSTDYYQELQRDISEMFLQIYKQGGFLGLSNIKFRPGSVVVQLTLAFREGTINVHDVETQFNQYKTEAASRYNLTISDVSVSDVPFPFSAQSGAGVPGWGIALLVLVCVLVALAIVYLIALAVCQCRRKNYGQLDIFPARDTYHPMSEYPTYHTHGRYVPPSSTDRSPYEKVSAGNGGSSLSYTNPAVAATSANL

B1: humanised anti-TnMUC1 scFv protein 9P1 (88A), VL-VH humanised control (scFv)
scFv: DIVMTQSPDSLAVSLGERATINCKSSQSLLNSGDQKNYLTWYQQKPGQPPKLLIYWASTRESGVPDRFSGSGSGTDFTLTISSLQAEDVAVYYCQNDYSYPLTFGQGTKVEIKGGGGSGGGGSGGGGSGGGGSQVQLVQSGAEVKKTGSSVKVSCKASGYTFTDHAIHWVRQAPGQALEWMGHFSPGNTDIKYNDKFKGRVTLTVDRSMSTAYMELSSLRSEDTAMYYCKTSTFFFDYWGQGTMVTVSSAAAHHHHHH
notes: Control scFv designed from a humanised antibody of WO2015/159076 (10D2 is said to come from Ab2, so 10D1 by implication from Ab1); Neat supernatant of construct 10D1 in the Octet assay; purified protein 9P1 in Biacore and flow cytometry; also called 10D1
EC50 (read off the curve) [1]: ~6 nM
EC50 [2]: 3.09 nM
pEC50 [2]: 8.51
EC50 [3]: 3.18 nM
pEC50 [3]: 8.5
EC50 [4]: 3 nM
pEC50 [4]: 8.52
